In patent US20200270588A1, “GLUCOSYL TRANSFERASE POLYPEPTIDES AND METHODS OF USE” (Syngenta Participations AG, priority 2017, published 2020):
Changes are numbered by the printed parent chain. Names may count otherwise.

B1: A432Q: bx9 SEQ ID NO:1 mutant (protein)
chain: MASSRTGAGAGGRVVVFPFPFQGHFNPVMRLARALHARGLAITVFHSGALDPADYPADYRFVPVTVEADPKLLASEDIAAIVTTLNASCDAPFRARLSALLAAEGRDSVRCVFTDVSWNAVLTASSDLGVPALGMMTASAASLRDYMAYRTLIDKGYLPVKEERKEDPVPELPPYLVKDLLRVDTSDLEEFAELLARTVTAARRASGLIFNTFPLIETDTLAEIHKALSVPVFAVAPLNKLVPTATASLHGVVQADRGCLQWLDTQQPGSVLYVSFGSMAAMDPHEFVELAWGLADSKRPFVWVVRPNLIRGFESGALPDGVEDEVRGRGIVVAWAPQEEVLAHPAVGGFLTHNGWNSTVEAISEGVPMVCCPRHGDQFGNMRYVCDVWKVGTELVGEQLERGQVKAAIDRLFGTKEGEEIKERMKEFKIAQAKGIGIGVDVDETASPRTDLTDLVDLIKSF
modifications: Zea mays
B2: A432N: bx9 SEQ ID NO:1 mutant (protein)
chain: B1 chain with Q432N
modifications: Zea mays
B3: A281T: bx9 SEQ ID NO:1 mutant (protein)
chain: B1 chain with A281T, Q432A
modifications: Zea mays
B4: A281L: bx9 SEQ ID NO:1 mutant (protein)
chain: B1 chain with A281L, Q432A
modifications: Zea mays
B5: A432H: bx9 SEQ ID NO:1 mutant (protein)
chain: B1 chain with Q432H
modifications: Zea mays
B6: I363A: bx9 SEQ ID NO:1 mutant (protein)
chain: B1 chain with I363A, Q432A
modifications: Zea mays
B7: A432T: bx9 SEQ ID NO:1 mutant (protein)
chain: B1 chain with Q432T
modifications: Zea mays
B8: A281S: bx9 SEQ ID NO:1 mutant (protein)
chain: B1 chain with A281S, Q432A
modifications: Zea mays
B9: A334K: bx9 SEQ ID NO:1 mutant (protein)
chain: B1 chain with A334K, Q432A
modifications: Zea mays
B10: A281V: bx9 SEQ ID NO:1 mutant (protein)
chain: B1 chain with A281V, Q432A
modifications: Zea mays
B11: I363C: bx9 SEQ ID NO:1 mutant (protein)
chain: B1 chain with I363C, Q432A
modifications: Zea mays
B12: A280V: bx9 SEQ ID NO:1 mutant (protein)
chain: B1 chain with A280V, Q432A
modifications: Zea mays
B13: F313M: additional mutation in SEQ ID No: 17 (protein)
chain: B1 chain with S117V, M279F, F313M, A334K, Q432A
modifications: Mutated Zea mays Bx9 protein sequence
B14: E339A (protein)
chain: B1 chain with M279F, E339A, H375Y, Q432A
modifications: C-terminal His tag; Zea mays
B15: E339V: additional mutation in SEQ ID No: 17 (protein)
chain: B1 chain with S117V, M279F, A334K, E339V, Q432A
modifications: Mutated Zea mays Bx9 protein sequence
B16: A432V: bx9 SEQ ID NO:1 mutant (protein)
chain: B1 chain with Q432V
modifications: Zea mays

What was measured:
Type in all cases: biochemical, Zea mays
[1] = UDP luminescence plate assay of E. coli extracts, mutants of SEQ ID No: 1, 2 mM metribuzin; conditions: 2 mM metribuzin
Description: (§1) Optionally plate assays are stopped with brief heating to 95 C before returning to ice and addition of UDP-Glo detection reagent followed by incubation at lab temperature. […] In addition a UDP standard curve is run alongside each set of plate tests.
Assays were carried out on extracts of E. coli BL21 DE3 expressing the various C-terminally his-tagged library variants of SEQ ID NO:1 at the amino acid positions listed in Table 11 as described in Example 2 except, in this case, with 2 mM metribuzin in place of herbicide V.
Thus the ratio of the metribuzin to DMSO signal as well as the increase in signal relative to the w/t bx9 is used to help distinguish those mutations most likely to offer the highest activity to metribuzin. A follow up assay monitored by, for example, LC MS is one method to distinguish these cases more quantitatively.

[2] = UDP luminescence plate assay of E. coli extracts, mutants within SEQ ID No: 17, 2 mM metribuzin; conditions: for RATIO of the metribuzin signal to the DMSO signal: 2 mM metribuzin vs DMSO control, same mutant; for SIGNAL: metribuzin signal of mutant divided by the signal of the SEQ ID No. 17 control / luminescence signal observed with 2 mM metribuzin / metribuzin signal relative to the SEQ ID No:17 control (first parentheses) / ratio of metribuzin to DMSO signal (second parentheses): 2 mM metribuzin; for SIGNAL: metribuzin signal of mutant divided by the signal of the SEQ ID No. 17 control: relative to SEQ ID No: 17 control; for luminescence signal in the DMSO control / luminescence signal observed with 2 mM metribuzin: additional mutations within SEQ ID No: 17; for luminescence signal in the DMSO control: DMSO in place of metribuzin; for luminescence signal observed with 2 mM metribuzin: control = SEQ ID No: 17; for metribuzin signal relative to the SEQ ID No:17 control (first parentheses) / ratio of metribuzin to DMSO signal (second parentheses): additional mutation in SEQ ID No: 17
Description: Activities observed with metribuzin were generally lower in magnitude than seen with herbicide V in the previous examples. For example, in one plate assay run with 2 mM metribuzin using 5 ul of diluted extract of plate-grown BL21DE3 cells expressing w/t bx9 and assayed for 40 minutes (as described in Example 2) the UDP-Glo luminescence signal was ˜3.4 E6 as compared with ˜2.3E6 in the DMSO control and ˜1.7E6 in the H24A null mutant control. […] It was therefore important to assess potential improvements in the metribuzin activity of the various mutants relative to the wild type bx9 enzyme based not only on the H24A null activity control but also based upon controls with DMSO in place of metribuzin acceptor substrate. In some plate assays (using more dilute extracts) the metribuzin signals from the w/t enzyme was the same or barely greater than the DMSO control. Additionally, some mutations gave an increase in the ‘background’ UDP-glucose hydrolysis activity with just DMSO present that was the same or similar to the magnitude of the increase in signal seen with metribuzin. In these instances it is therefore uncertain from just this UDP-Glo assay method whether the specific metribuzin signal (glucosylation of metribuzin) is improved or not i.e. the signal seen with metribuzin may or may not all or to a large part be attributable to increased background hydrolysis). […] Thus the ratio of the metribuzin to DMSO signal as well as the increase in signal relative to the w/t bx9 is used to help distinguish those mutations most likely to offer the highest activity to metribuzin. A follow up assay monitored by, for example, LC MS is one method to distinguish these cases more quantitatively. The tables below summarise the results from two different sets of luminescence plate assays to detect single mutations giving improvements in the magnitude of the signal with metribuzin relative to w/t bx9 and/or the apparent specificity for metribuzin as measured by the deviation of the ratio of metribuzin to DMSO control activity from the bx9 w/t value of around unity.
A further separate screen was carried out to explore a library of additional mutations at various positions within the context of SEQ ID No: 17 for improved metribuzin activity. These were assayed, assessed and scored as above. […] These were S75K (2.5)(1.25), A236G (4.0)(1.15), A433V (3.3)(9.0) and R449C (1.8)(1.2).
A yet further and more comprehensive screen was carried out to explore saturation mutagenesis at all remaining amino acid positions within the context of SEQ ID No:17 for improved metribuzin activity. Again these were assayed, assessed and scored as above and the results of (out of the thousands screened) of the subset that were of interest are summarized in Table 16.

[3] = UDP luminescence plate assay of E. coli extracts, saturation mutants of SEQ ID NO: 1, herbicide V; conditions: improvement factor relative to w/t bx9 = 1.0, rounded to nearest 0.5; extract activity basis; compound V
Description: Competent BL21 (DE3) cells are transformed as in the foregoing examples and, following seed culturing, grown and autoinduced in plates in a 0.5-1 ml volume of autoinduction medium containing 50 ug/ml kanamycin. Plates are incubated at 37° C. and shaken at 900 rpm. Growth is monitored by taking 20 ul aliquots, diluting 10 fold into flat-bottomed 96 well microtiter plates and reading OD600n at t=0, 1, 2, 2½ and 3 hours if necessary. At a (corrected) OD600 nm˜0.2, plates are transferred to 20° C. and shaken overnight at 900 rpm in a Jencons VWR plate incubator. After ˜18-20 h the final OD600 readings are recorded and the plates centrifuged at 4600 rpm (bench top centrifuge) for 10 min at 4° C. The supernatant is discarded and the pellets then washed with 0.25 ml PBS by repeat centrifugation and removal of supernatant before freezing cell pellets at −80° C. To prepare extracts, plates are allowed to thaw for 30 min and then pellets are resuspended in 0.25 ml of a suitable lysis buffer (for example—50 mM Tris HCL buffer at pH 8.0, 5% glycerol containing 50 mM NaCl and lysonase) mixed, incubated at room temperature for a sufficient time for lysis to be near complete and then centrifuged to remove cell debris and 100 ul of supernatant extract removed to a 96 well V-shaped well plate and stored on ice prior to assay.
as §1
Making use of the ELISA assay it is then possible to calculate a specific activity (e.g. in Relative Luminescence Units (RLU)/min/ug bx protein) based upon the amount of each mutant bx9 polypeptide expressed in each well. […] The specific activity of the various test mutant extracts on the same plate are then expressed as a fraction of the specific activity of the w/t bx9 and thus the ‘improvement factor’ versus the w/t expressed as a decimal where, for example, ‘0.5’ means half the specific activity of the wild type and 2.0 means twice the specific activity of the wild type. However, as will be readily apparent to the skilled man, particularly in cases where the UDP assay signal was low (with poor signal to noise versus the background) and/or the ELISA measurement of bx protein also low such a method is prone to generate spurious high specific activity numbers and uncertain numbers.

Molecule | SIGNAL: metribuzin signal of mutant divided by the signal of the SEQ ID No. 17 control [2] | luminescence signal in the DMSO control [2] | luminescence signal observed with 2 mM metribuzin [2] | Preferred amino acid substitutions and (IF) based on RLU/min/ul [3] | further results
B1 | 4.09 | 6.22E+06 | 7.46E+06 |  | factor of increased signal relative to the bx9 w/t control signal (first parentheses) [1]: 6; ratio of activity with metribuzin relative to activity with DMSO (second parentheses) [1]: 1.35; RATIO of the metribuzin signal to the DMSO signal [2]: 1.20
B2 | 4.21 | 6.13E+06 | 7.67E+06 |  | 
B3 |  |  |  | S,T,V(1.0) | 
B4 |  |  |  | L(1.5) | 
B5 | 3.44 | 6.08E+06 | 6.28E+06 |  | 
B6 |  |  |  |  | Most Preferred amino acid substitutions and (IF) based on RLU/min/ul [3]: A,V(2.0)
B7 | 3.57 | 5.56E+06 | 6.51E+06 |  | factor of increased signal relative to the bx9 w/t control signal (first parentheses) [1]: 3.5; ratio of activity with metribuzin relative to activity with DMSO (second parentheses) [1]: 1.35; RATIO of the metribuzin signal to the DMSO signal [2]: 1.17
B8 |  |  |  | S,T,V(1.0) | 
B9 |  |  |  |  | Most Preferred amino acid substitutions and (IF) based on RLU/min/ul [3]: K,R(2.0)
B10 |  |  |  | S,T,V(1.0) | 
B11 |  |  |  | C(1.0) | 
B12 |  |  |  | V(1.0) | 
B13 | 1.91 | 2.69E+06 | 3.48E+06 |  | RATIO of the metribuzin signal to the DMSO signal [2]: 1.29; metribuzin signal relative to the SEQ ID No:17 control (first parentheses) [2]: 1.9; ratio of metribuzin to DMSO signal (second parentheses) [2]: 1.30
B14 | 2.01 | 2.39E+06 | 3.66E+06 |  | RATIO of the metribuzin signal to the DMSO signal [2]: 1.53
B15 | 2.64 | 3.18E+06 | 4.81E+06 |  | metribuzin signal relative to the SEQ ID No:17 control (first parentheses) [2]: 2.6; ratio of metribuzin to DMSO signal (second parentheses) [2]: 1.51
B16 | 3.88 | 5.69E+06 | 7.07E+06 |  | 
